{"source": "patent US20040053235A1", "about": "(published 2004)", "proteins": {"B1": {"name": "recombinant Arabidopsis thaliana L-galactose dehydrogenase (expressed in E. coli from pRSETB-LgalDH, with poly-histidine tag) (enzyme)", "chain": "MTKIELRALGNTGLKVSAVGFGASPLGSVFGPVAEDDAVATVREAFRLGINFFDTSPYYGGTLSEKMLGKGLKALQVPRSDYIVATKCGRYKEGFDFSAERVRKSIDESLERLQLDYVDILHCHDIEFGSLDQIVSETIPALQKLKQEGKTRFIGITGLPLDIFTYVLDRVPPGTVDVILSYCHYGVNDSTLLDLLPYLKSKGVGVISASPLAMGLLTEQGPPEWHPASPELKSASKAAVAHCKSKGKKITKLALQYSLANKEISSVLVGMSSVSQVEENVAAVTELESLGMDQETLSEVEAILEPVKNLTWPSGIHQN", "notes": "The entry describes one subunit; also called recombinant L-galDH; not shown: poly-histidine tag and vector-encoded residues from pRSETB"}}, "target": "the molecule itself", "test": "size exclusion chromatography on Superdex 200: activity peaks at 42.4 and 87.5 kD, each a single 42.2 kD polypeptide on SDS-PAGE (self-association)", "description": "Further purification of the enzyme activity was carried out by Ni2+ affinity chromatography (which binds the poly-histidine tag of the recombinant protein) and size exclusion chromatography. Nickel affinity chromatography was carried out by passing an E. coli extract, prepared as described above, through a column containing NTA-agarose (Novagen “His-Bind Resin”). 5 ml of the resin were washed with 30 ml H₂O, charged with 30 ml NiSO₄ washed with 30 ml H₂O and equilibrated with 30 ml 50 mM Na-phosphate pH 8, 300 mM NaCl. The E. coli pellet was suspended in 50 mM Na-phosphate pH 8, 300 mM NaCl and sonicated. The suspension was centrifuged again (9000 g, 20 min). The supernatant was stirred with the Ni-resin on ice for 1 hour. The suspension was transferred into a column. After settling down the column was washed with 250 ml 50 mM Na-phosphate pH 6 containing 300 mM NaCl an d 10% glycerol. Ni-bound protein was eluted with 500 mM imidazole/50 mM Na-phosphate at pH 6 containing 300 mM NaCl. Fractions were collected and assayed for L-galactose dehydrogenase activity. […] This sample was then subjected to size exclusion chromatography on a Superdex 200 column (Amersham-Pharmacia Biotech) using 25 mM tris-HCl buffer pH 7 containing 150 mM NaCl as eluent Fractions (1 ml) were collected and two peaks of activity corresponding to molecular weights of 42.4 and 87.5 kD were detected. […]"}
{"protein": "B1", "values": [{"measurement": "binding result", "value": "binds"}]}
